Results as given in PMC11482615, “Novel Peptides LFLLP and DFFL from Jack Bean Protein Hydrolysates Suppress the Inflammatory Response in Lipopolysaccharide-Stimulated RAW 264.7 Cells” (Foods, 2024).
Residues, ends and D or L forms follow the SMILES beside them. *: point of attachment. FITC = O=C1OC2(c3ccc(O)cc3Oc3cc(O)ccc32)c2ccc(NC(=S)*)cc21

Tested on: RAW 264.7 cells
Experiment: Visualization of FITC-conjugated peptides in RAW 264.7 cells (fluorescence microscopy)
Format: cell-based, mouse
Settings: 200 μmol/L FITC-conjugated peptide, 24 h; for incorporation into RAW 264.7 cells (fluorescence signal): intensity of the two peptides roughly comparable; for cellular localization in RAW 264.7 cells: non-colocalization with DAPI
Description: To visualize the cellular localization of peptides, LFLLP and DFFL were conjugated with fluorescein isothiocyanate isomer-I (FITC-I, Dojindo). Briefly, the LFLLP and DFFL were mixed with FITC-I in a carbonate buffer at pH 9.5 for 2 h. To purify the FITC-conjugated peptides, the mixture was applied to a Sep-Pak C18 cartridge. RAW 264.7 cells were seeded in a 6-well plate (0.5 × 10^4 cells/cm^2). After 3 days, the cells were incubated with FITC-conjugated peptides (LFLLP and DFFL, 200 µmol/L) for 24 h. The cells were then washed with cold PBS and fixed with 4% PFA for 10 min. Lastly, the cells were washed three times with PBS and mounted on microscope slides using a mounting fluid containing DAPI, and the fluorescence signals were visualized using a Leica DMI6000 B fluorescence microscope (Leica).

SMILES	incorporation into RAW 264.7 cells (fluorescence signal)	cellular localization in RAW 264.7 cells
CC(C)C[C@H](NC(=O)[C@H](Cc1ccccc1)NC(=O)[C@H](CC(C)C)NC(=S)Nc1ccc2c(c1)C(=O)OC21c2ccc(O)cc2Oc2cc(O)ccc21)C(=O)N[C@@H](CC(C)C)C(=O)N1CCC[C@H]1C(=O)O [FITC-conjugated LFLLP] ({FITC}-LFLLP-OH)	observed in most cells	predominantly localized in the cytosols
CC(C)C[C@H](NC(=O)[C@H](Cc1ccccc1)NC(=O)[C@H](Cc1ccccc1)NC(=O)[C@H](CC(=O)O)NC(=S)Nc1ccc2c(c1)C(=O)OC21c2ccc(O)cc2Oc2cc(O)ccc21)C(=O)O [FITC-conjugated DFFL] ({FITC}-DFFL-OH)	observed in most cells	predominantly localized in the cytosols
